Here are results for seven molecules from PMC11543927, “Subtleties in Clathrin heavy chain binding boxes provide selectivity among adaptor proteins of budding yeast” (Nature Communications, 2024).

B4: Saccharomyces cerevisiae clathrin heavy chain N-terminal domain (ScChc-NTD, 1-369) (domain or fragment, UniProt P22137 1-369, looked up)
chain: MSDLPIEFTELVDLMSLGISPQFLDFRSTTFESDHFVTVRETKDGTNSVAIVDLAKGNEVTRKNMGGDSAIMHPSQMVISVRANGTIVQIFNLETKSKLKSFTLDEPVIFWRWLSETTLGFVTARSILTSNVFDGNVNAKPQLLTLRHANLNNTQIINFVANKNLDWFAVVGILQENGRIAGRIQLFSKQRNISQAIDGHVAIFTNILLEGNGSTPVQVFVTGNRNATTGAGELRIIEIDHDASLPSQYQKETTDIFFPPDATNDFPIAVQVSEKYGIIYLLTKYGFIHLYELETGTNLFVNRITAESVFTAAPYNHENGIACINKKGQVLAVEISTSQIVPYILNKLSNVALALIVATRGGLPGADDL
notes: Clathrin heavy chain N-terminal domain, Saccharomyces cerevisiae, residues 1-369; pETM-30 vector with a His-GST tag and a TEV cleavage site; also called WT NTD; source: E. coli BL21 (DE3), purified (Ni-NTA, TEV cleavage, reverse Ni-NTA, SEC)

One series has as its target T1, ScChc-NTD (Saccharomyces cerevisiae, UniProt P22137).
T1 construct: N-terminal domain (ScChc-NTD, 1–369) was cloned in a pETM-30 vector; His-GST (TEV site); made in house; host or cells: E. coli BL21 (DE3)
T1 sequence (P22137 1-369): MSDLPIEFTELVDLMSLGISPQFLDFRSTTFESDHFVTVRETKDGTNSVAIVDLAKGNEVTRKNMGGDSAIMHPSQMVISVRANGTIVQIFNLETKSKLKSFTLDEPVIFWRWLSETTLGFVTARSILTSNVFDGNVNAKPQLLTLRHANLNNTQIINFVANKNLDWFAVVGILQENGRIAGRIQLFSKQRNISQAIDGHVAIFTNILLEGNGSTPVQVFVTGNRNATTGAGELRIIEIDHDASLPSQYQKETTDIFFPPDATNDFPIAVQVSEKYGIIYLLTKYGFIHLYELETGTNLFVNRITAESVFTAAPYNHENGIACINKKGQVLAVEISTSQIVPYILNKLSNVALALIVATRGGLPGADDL
Briefly: Native MS titration of Ent5.1, 1.75 µM protein in 200 mM NH4AcO pH 9.0. As to conditions: global non-linear square fitting of the five measured fractions, four independent sites with the same affinity; read-out: microscopic KD. It is filed as binding. The protocol: ScChc-NTD stocks were doubly buffer-exchanged into a 200 mM NH4AcO, pH 9.0 buffered solution by two subsequent runs on P6 biospins (BioRad); the protein concentration was determined photometrically (ε280 nm = 26,930 M^−1cm^−1) and the protein was diluted into 20 µl aliquots. Final samples contained 1.75 µM protein. Samples for competition experiments were prepared similarly for constant (20 µM) Ent1 and varying (0, 5, 10, 15, 20, 25, 30 and 50 µM) Ent2 concentrations and vice versa. Mass measurements. Samples were placed into gold-coated capillaries and after ionization by nano-electrospraying mass-measured in a QE-UHMR orbitrap mass spectrometer (Thermo Fisher Scientific) as follows: 1. establishment of a (“wet”) spray using a capillary voltage of 1.10-1.15 kV but with the syringe locked as to guarantee a relatively high backing pressure. 2. […] By doing so, success in the sense of as least as possible unspecific clusters could be easily monitored by spectrum appearance and distinct downward steps of the total ion current (TIC). […]
The processed output of the native MS interaction data consists of the relative fractions of CHC bound to different numbers of peptides. In this case, we detected CHC bound to up to four peptides. […]
To average the measured fractions related to similar free ligand concentrations, we used log-spaced intervals with base 1.1 starting at 0.011 μM. […]

The target in series [1] is T2, Chc-mScarlet Clathrin and Arrestin box mutant (Cla+Arr) (Saccharomyces cerevisiae, UniProt P22137 1-1653, K63E | I87D | Q89A | K98E | Q195A | I197T | K251E).
T2 construct: Clathrin heavy chain, Saccharomyces cerevisiae, the ORF of CHC1 fused in the 3' with mScarlet, Clathrin and Arrestin box mutant; source: S. cerevisiae MK100, mutated plasmid pRS315-5'UTR CHC-mScarlet, endogenous CHC1 knocked out, in living cells; not shown: mScarlet, C-terminal, kept
Briefly: FRET or BRET; acceptor photobleaching FRET in living yeast cells at endocytic patches stalled with Latrunculin A, donor mNeonGreen on Ent1/Ent2, acceptor mScarlet on Chc, 21 °C; trimmed mean FRET efficiency. As to conditions: partners not purified.

Series [2] deals with T3, Clathrin heavy chain fused to mScarlet (Chc-mScarlet), wild type (Saccharomyces cerevisiae, UniProt P22137 1-1653).
T3 construct: Clathrin heavy chain, Saccharomyces cerevisiae, the ORF of CHC1 fused in the 3' with mScarlet; also called Chc1-mScarlet; ScCHC-mScarlet; not shown: mScarlet, C-terminal, kept
The description is as above. As to conditions: partners not purified.

The target in series [3] is T4, Chc-mScarlet Arrestin box mutant (Q195A, I197T, K251E) (Saccharomyces cerevisiae, UniProt P22137 1-1653, Q195A | I197T | K251E).
T4 construct: Clathrin heavy chain, Saccharomyces cerevisiae, the ORF of CHC1 fused in the 3' with mScarlet, Arrestin box mutant; also called Arr mutant; source: S. cerevisiae MK100, mutated plasmid pRS315-5'UTR CHC-mScarlet, endogenous CHC1 knocked out, in living cells; not shown: mScarlet, C-terminal, kept
The description is as above. The settings on record: partners not purified.

In series [4] the target is B4. Briefly: nanoDSF thermal shift; ScChc-NTD 8 µM incubated with eleven peptide concentrations (1:1 dilutions) for 15 min, heated 20-95 °C at 1 °C/min, SEC buffer (50 mM Tris pH 9, 150 mM NaCl, 0.5 mM TCEP); apparent KD from the Tm shift model, one to one binding assumed, global average over all boxes. The settings on record: both partners purified.
Series [5] concerns the target B4. Briefly: native MS; ScChc-NTD 1.75 µM in 200 mM NH4AcO pH 9.0, Ent5.1 peptide up to 100 µM. The settings on record: both partners purified.
Series [6] deals with the molecule itself. Kind of series: crystal structure; sitting drop; NTD incubated with excess peptide (between 23 and 40 fold) for 15 min at room temperature (21 °C) before setting up plates.

As for `CC[C@H](C)[C@H](N)C(=O)N1CCC[C@H]1C(=O)N[C@@H](CC(=O)O)C(=O)N[C@@H](CC(C)C)C(=O)N[C@H](C(=O)N[C@@H](CC(=O)O)C(=O)N[C@@H](CC(C)C)C(=O)N[C@@H](CC(=O)O)C(=O)N[C@@H](CC(=O)O)C(=O)O)[C@@H](C)CC` (single isomer, unassigned) [Ent5.1], the Kd at ScChc-NTD came to 39.1 µM.

B1: Ent2 endogenously tagged with mNeonGreen (Ent2-mNeonGreen) (natural protein, UniProt Q05785 1-613, looked up)
chain: MSKQFVRSAKNMMKGYSSTQVLVRDATANDSRTPSIDTLDDLAQRSYDSVDFFEIMDMLDKRLNDKGKYWRHVAKSLTVLDYLVRFGSENCVLWCRENFYVIKTLREFRHENESGFDEGQIIRVKAKELVSLLNDEERLREERSMNTRNRRANRAARPRPRRQRTRSNPHDSSPSYQDDLEKALEESRITAQEDEQRRRELAQYDDEDPDFQAALQLSKEEEELKQLQELQRLQKQQQSLSQFQAPLQQQQPQQQPAYYDIFGNPISQDEYLQYQYQQDQEQAMAQQRWLDQQQEQQQLAEQQYFQQQQQAAAAASALQQQQTAANMQQQQQQPADFQQPLPTGSNNPFSMDNLERQKQEQQHAQLQRQQEEARQQQEQLKLQQLQRQQQEEAQLHQKRQEEAQLQQQQAQLLQQQAQFQQQQPLKQTRTGNQSISDKYSDLNTLLATGTGIDTFGNTGEARIPAQHTKTGTFINSQGTGYKQVTNEPKNNPFLSNQYTGLPSTNIVPTQTGYGFGNQPQSPPTNSPQQNPTGISYSQPQQQQQPQQQPQYMQNFQQQQPQYAQNFQQQPQYTQNYQQQPQYIQPHQQQQQQQQQQQQQQGYTPDQGVSLIDL
notes: epsin Ent2, Saccharomyces cerevisiae, endogenous locus tagged with mNeonGreen; also called Ent2-WT-mNeonGreen; Ent2p; source: endogenously tagged, S. cerevisiae MK100, in living cells
Turning to B1, the values for the FRET efficiency in series [1], in series [2] and in series [3] were 6.1%, 9.02% and 6.7%, respectively.

B2: Ent5.1 CBM peptide (IPDLIDLDD) (peptide)
peptide: IPDLIDLDD
notes: also called Ent5.1 LIDL motif; LIDL peptide; source: synthetic peptide, bought: NovoProLabs
As to B2, the Kd in series [4] is approximately 34 µM. Moreover, the “stoichiometry N” value in series [5] amounted to 3.

B3: Yap1801 CBM peptide (NLNLIDM) (peptide)
peptide: NLNLIDM
notes: source: synthetic peptide, bought: NovoProLabs
For B3, the Kd in series [4] was approximately 598 µM.

Turning to B4, in series [6], the binding result is recorded as “binds”.

B5: Apl2.1 CBM peptide (SQDLLDLF) (peptide)
peptide: SQDLLDLF
notes: also called LLDLF peptide; source: synthetic peptide, bought: NovoProLabs
In the case of B5, the Kd in series [4] is approximately 245 µM.

B6: Yap1802 CBM peptide (NPNLIDI) (peptide)
peptide: NPNLIDI
notes: as for B3
As to B6, the Kd in series [4] is approximately 311 µM.
